In the nanobody polyreactivity screen of Harvey et al. (2022):

Test: yeast display, Sf9 membrane polyspecificity reagent, FACS + sequencing; frameworks hold sequencing errors
Summary of the method: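 Polyreactivity labels are assigned by the sorting gate from which each nanobody was recovered. The gates were low and high (top ~1%), set on anti-HA fluorescence for expression and streptavidin fluorescence for reagent binding. Before sorting, galactose-induced (36–48 hours) yeast display cells were stained for 1 hour at 4 °C with 10% biotinylated, detergent-solubilized Sf9 membrane reagent.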

Sequence	polyreactivity (PSR sort gate)
EVQLVESGGGLVQPGGSLRLSCAASGYIYRRYRMGWYRQAPGKGREFVAAISGGSSTNYADSVTGRFTISRDNSKNTVFLQMNSLRAEDTAVYYCAAYKIDSYPRVYWGQGTQVTVSS	low polyreactivity
QVQLVESGGGLVQAGGSLRLSFAASGSIFVKYAMGWYRQAPGKERELVAAITTGVGSTYYADSLKGRFTISRDNAKNTVYLQMNSLKPEDTAVYYCAVRPPRVRTVFYGGNYWGQGTQVTVSS	low polyreactivity
QVQLVESGGGLVQAGGSLRLSCAASGFTFVRYAMGWYRQAPGKERELVAAISSSGSSTYYADSVKGRFTISRDPVKNTVYLQMNSLIPEDTAVYYFNARAGGGEDYWGQGTQVTVSS	low polyreactivity
QDQLVESRGGLVQAGGSLRLSCAASGGTFRVYAMGWFIQAPGKERELVAAISSGGSTNYADSVNGRFTISRDNSKNTVYLQMNSLKPEDTAVYYCAADRVGWSVYRGDYWGHGTQVTVSS	high polyreactivity
QVQLVESGGGLVQAGGSLRLSCSAYGYTFSHYAMGWYRQAPGKERELVAGITWSGGSTYYADSVKGRYTISRDNAKNTVYLQMNSLKPEDTSVYYCAAKYYWYYSYSGIPLFDYWGQGTQVTVSS	low polyreactivity
QVQLVESGGGLVQAGGSLRLSCAASGRIFGWYAMGWYRQAPGKERELVAAISRGGGSTYYADSVKGRFTISRDNAKNTVYLQMNSLKPEDTAVYYCARDGGSLSHYHVGTGKFGYWGQGTQVTVSS	low polyreactivity
QVQLVESGGGLVQAGGSLRLSCAASRLTFQQYAMGWYRQAPGKERELVAAITSDGASTNYADSVKGRFTISRDNAKNTVYLQMNSLKPEDTAVYYCAARRSSRQYRYDYWGQGTQVTVSS	high polyreactivity
QVQIVDSGGGLVQAVGSLRLSCAASGSIIKKYAMGWYRQAPGKERELVAAISSTCGSTKYADSVKGRFTISRDNAKNTVYLQMNSLKAEDTAVYYCAVRYKWPYDYWGQGTQVTVSS	high polyreactivity
QVQLVESGGGLVQAGGSLRLSCAASGRIFRYNAMGWYRQAPGKERELVAAITNGGSTNYADSVKGRFTISRDNAKNTVYLQMNSLKPEDTAVYYCNAQGRRYSQRYYYWGQGTQVTVSS	high polyreactivity
QVQLVESAGGLVQAGGSLRLSCAASGITLSYNAMGWYRQAPGKERELVAAISARGGSTYYADSVKGRFTISRDNAKNTVYLQMNSLKPEVTAVYYCAAPRGWRQNKYDYWGQGTEVTVSS	high polyreactivity
QVQLVESGGGLVQAGGSLRLSCAASGLTFFRNAMGWYREATGKERELVATITSTSSTNYADSVKGRFTISRDNAKNSVYLQMNSLIPEDTAVYYCAARTVGRKAGFDYWGQGTQVTVSS	high polyreactivity
QVQLVESGGGLVQAGGSLRLSCAASGRTFWYYAMGWYRQAPGKERELVAGITYGDGSTYYADSVKGRFTISRDNAKNTEYLQMNSLKPEDTAVYYCAVDLRSYWFRYGFDYWGQGTQVTVSS	low polyreactivity
QVQLVESGGGLVQAGGSLRLSCAASGRTFFINTMGWYRQAPGKERELVAAITWSGGSTYYADSVKGRFTISRDNAKNTVYLQMNSLKPEDTAVYYCAAVYVYRPDIIYVEVAYDYWGQGTQVTVSS	low polyreactivity
QVQLVETGGGLVQAGGSLRLSCAASGRIFQWYAMGWYRQAPGKERELVAAINNGGSTNYADSVKGRFTISRDNAKNTVYLQMNSLKPEDTAVYYCAAELTFVAQGWFVTYDYWGQGTQVTVSS	high polyreactivity
QVQLVESGGGLVQAGGSLRLSCAASGSIFVSYAMGWYRQAPGKERELVAAITRSGGSTYYADSVKGRFTISRDNAKNTLYLQMNSLKPEDTAVYYCAARSYLGAYRRYYWGQGTQVTVSS	high polyreactivity
QVQLVESGGGLVQAGGSLRLSCAASGSTLRDYVMGWYRQAPGKERELVAAITSRVDDTYYADSVKGRFTISRDNAKNTVYLQMNSLKPEDTAVYDCAADYSVTLRIGGYYWFYAFDYWGQGTQVTVSS	low polyreactivity
QVQLVESGGGLVQAGGSLRFSCAASGGTFWYYAMGWYRQAPGKERELDASISRGGSTNYADSVKGRFTISRDNAKNTVYLQMNSLKPEDTAVYYCIAGLRVGPRRYVDYEYDYWGQGTQVTVSS	low polyreactivity
QVQLVESGGGLDQAGGSLRLSCAASGITFYGYTMGLYRQAPGKERELVATITRGGSTYYADSVKGRFTISRDNAKNTVYLQMNSLKPEDTAVYYCAAESQYDYGVEYDYWVQGTQVTVSS	low polyreactivity
QVQLVDSGGGLVQAGGSLRLSCAASGSIFGSYAMGWYRQAPGKERELVAGISGRGGSTYYADSVKGRFTISRDNAKNTVYLQMNSLKPEDTAVYYCAAGRRNGWLIPHYYWGQGTQVTVSS	high polyreactivity
QVQLVESDGGLVQAGGSLRLSCAASGSTFTWNAMGWYRQAPGKERELVAAISGDGGSTYYADSVKGRFTISRDNAKNTVYLQMNSLKPEDTAVYYCAASSAHIYSYRYNYWGQGTQVTVSS	low polyreactivity
QVQLVESGGGLVQAGGSLRLSCAATGRIFTYYAMGWYRQAPGKERELVAGISGSGTSTYYADSVKARFTISRDNAKNTVDLQINSLKPEDTAVYYSAADVFRDDVWLDYWGQGTQVTVSS	low polyreactivity
QVQLVESGGGLVQAGGSLRLSCAASGSIFVGYAMGWYRQAPGKERELVAAITSGGNTNYADSVKGRFTISRDNAKNTVYLQMNSLKPEDTAVYYCNKDQGDGLRSQLGTDATYDYWGQGTQVTVSS	low polyreactivity

Sequence	polyreactivity (PSR sort gate)
QVQLVESGGGLVQAGGSLRLTCAASGFTFYRNTMGWYRQAPGKERELVAAITQRGGSTYYADSVKGRFTISRDNAKNTVYLQMNSLKPEDTAVYYCNRDVKVLYASSHSPYGYDHWGQGTQVTVSS	low polyreactivity
QVQLVESGGGLVQAGGTLRLSCAASGLTFGYNAMVWYRQAPRKERELVATISYSGGRTYYADSVKGRFTISRDTAKNTVYLQMNSLKPEDTAVYSCAARRASGPYGFGYWGQGTQVTVSS	high polyreactivity
QDLLVESGGGLVQAGGSLGLSCAASGRIFSIYAMGWYRLAPGKERELVAAITRGGRTNYADSVKGRFTISRDNAKNTDYLQMISLKPEDTAVYYCADRLIDGVVKPYDYWGQGTQVTVSS	low polyreactivity
QVQLVESGGGLVQAGGSLRLSCAASGRIIYSYAMGWYRQAPGKERELVATITASGGRTYYADSVKGRFTISRDNAKNTVYLQMHSLKQEDSAVYYCNARYYGSFRRRYDYWGQGTQVTVSS	high polyreactivity
QVQLEESGGGLVQAGGSLRLSCAASGSTFGYYAMGWYRQAPGKERELVAAISRSGGITYYADSVKGRFTISRDNAKNTVYLQMNSLKPDDTAVYYCAADRNRYTGEDDSWGQGTQVTVSS	low polyreactivity
QVQLVESGGGLVQAGGSLRKSCAASGIIFAYYALGCSRQAPGKERELGAAISSDGSTNYADSVKGRFTISRDNAKNSVYLQMNILKPVDTAVYYCAAKAYLYHWFEMYYWGQGTQVTVSS	high polyreactivity
QVQLVESGGGLVQAGGSLRLSSAASGSTFLLNAMGWYRQAPGKERELVAAITWSGSRTYYADSVKGRFTISRDNPKYNVYLQMNSLKPEDTAVYDCAAEYRDTRRYSYDYWGQGTQVTVSW	high polyreactivity
QVQLVESGGGLVQAGGSLRLSCAASGSTFDGNAMGWYRQAPGKDRELVAAITWRDGSPSYADSVKGRFTISRDNAKNTVYLQMNSLKPEDTAVYYCNADPGYLDEEYWGQGTQVTVSS	low polyreactivity
QVQLVESGGGLVQAGGSLRLSCAASGRIFQPNVMGWYRQAPGKERELVAAIRSGSSTYYADSVKGRFTISRDNAKNTVYLQMNSLKPEDTAVYYCATRRAGRGYDYWGQGTQVTVSS	high polyreactivity
QVQLVESGGGLVQAGGSLRLSCAASGPTFGVYAKGWDRQAPGKEREFVAAISSTGGSTYYADSVKGRFTISRDNAKNTVYLQMNSLKPEDTAVYYCAARLHTYGYSYGYWGQGTQVTVSS	high polyreactivity
QVQIVESVGRLVQAGCSLRLSCDASGRIFGTNAKGWYSQAPGKDRELFAAINGSDSSTYYADSVKGRFTISRDNAKNSDYLQMNSLKPEDNAVYYCNADWSRAPERSTYGYDYWGHGTQVTVSS	low polyreactivity
QVQLVESGGGLVQAGGSLRLTCAASGSIFRVNAMGWYRQAPGKERELVAAISSGGSTHYADSVKGRFTMSRDNAKNTVYLLMNSLKPEDTAVYYCAVRGERRYIYDYWGQGTQVTVSS	high polyreactivity
QVQLVESGGGLVQAGGSLRLSCAASGRTFGPYTMGGYIQAPGKEREFVAAIRSRGDTTYYADSVKGRFTISRDNAKNTVYLQMNSLKPEDTAVYYCAARSYFLVAGSRYDYWGQGTQVTVSS	high polyreactivity
QVHLVESGGGLVQAGGSLRLSCAASGSIFVSNAMGWYRQAPGKERELVAAIRGVDSTYYADSVKGRFTISRDNAKNTVYLQMNSLKPEDTAVYYCATPGPGYTRYYYWGQGTQVTVSS	high polyreactivity
QVQLLESGGGLVQAGGTLRLSCAASGYTFTNNAMGWYRQAPGKERELVAGITRGGSTNYADSVKGRFTISRDNAKNTVSLQMNSLKPEDTAVYYWAADLRPNSQNGLLEDEMDYWGQGTQVTVSS	low polyreactivity
QVQLVESGGGLVQAGGSLRLISAASGFIFLFYAMGWYRQAPGKERELVAAISSGVSTNYADSVKGRFTISRDNAKNTVYLQMNCLKPEDTAVYYCTTTQSTSLLYDYWGPGTQVTVSS	low polyreactivity
QVQLVESGGGLVQAGGSLRLSCAATGFTFCANAMGWYRQAPGKERELVAAISWTGVNTYYADSVKGRFTISRDNAKNTVYLQMNSLKPEDTAVYSCAAEQWSTGYYYWGQGTQVTVSS	high polyreactivity
QVQLVESGGGLVQAGGSLRLSCAASGRILVLNAMGWYIQAPGKERELVADITSGGSTYYADSVKGRFTISRDNEKNTVYLQMISLKPEHTAVYYCAADWNTYPDYLQSYFVSYEYNYWGQGTLVTVSS	low polyreactivity
QVQLVESGGGLVQAGGSLRLSCAASGRTFPLNAMGWYRQAPGKERELVASITKSTGNTRYADSVKGRFTISRDNAKNTVYLQMNSLKPEDTAVYYCAARSYRDRYYWGQGTQVNVSS	high polyreactivity
QVQLVESGGGLVQAGGRLRLTCAASGFIFGYYTMGWYRQAPGKERELVASITRGGSTNYADSVKGRFTISRDNAKNTVYLQMNSLKPEDTAVYYCAKRYAQTYSVSRYYYWGQGTQVTVSS	high polyreactivity
QVQLVESGGGLVQAGGSLRLSCAASGSTFYPYAMGWYRQAPGKERELVAGIRSGGSTNYADSVKGRFTISRDNAKNTVYLQMNSLKPEDTAVYYCAARRWRTQDRSHFDYWGQGTQVTVSS	low polyreactivity
